# Source: patent US7547676B2, “Antagonist peptides to the C5A chemotactic function of vitamin D binding protein” (The Research Foundation of State University of New York, priority 2004, dated 2009)
# B1: DBP: Purified human DBP obtained from Biodesign International (protein)
# chain: LERGRDYEKNKVCKEFSHLGKEDFTSLSLVLYSRKFPSGTFEQVSQLVKEVVSLTEACCAEGADPDCYDTRTSALSAKSCESNSPFPVHPGTAECCTKEGLERKLCMAALKHQPQEFPTYVEPTNDEICEAFRKDPKEYANQFMWEYSTNYGQAPLSLLVSYTKSYLSMVGSCCTSASPTVCFLKERLQLKHLSLLTTLSNRVCSQYAAYGEKKSRLSNLIKLAQKVPTADLEDVLPLAEDITNILSKCCESASEDCMAKELPEHTVKLCDNLSTKNSKFEDCCQEKTAMDVFVCTYFMPAAQLPELPDVELPTNKDVCDPGNTKVMDKYTFELSRRTHLPEVFLSKVLEPTLKSLGECCDVEDSTTCFNAKGPLLKKELSSFIDKGQELCADYSENTFTEYKKKLAERLKAKLPDATPTELAKLVNKHSDFASNCCSINSPPLYCDSEIDAELKNIL
# Biological target: T1, DBP immobilized on a Biacore sensor chip (Homo sapiens, UniProt P02774)
# T1 construct: DBP was purified from human plasma; purchased Biodesign International; host or cells: human plasma
# T1 sequence (P02774 17-474): B1 chain
# Assay: Biacore surface plasmon resonance: U937-C5aR cell binding to immobilized DBP
# Procedure: FIG. 8A and FIG. 8B show immobilization of DBP on a Biacore surface plasmon resonance sensor chip CM5. Purified DBP in HBSS (5 μM) was coupled to the sensor chip. Coupling was detected using 5 μg/ml affinity-purified anti-DBP (FIG. 8A). Different concentrations of U937-C5aR cells in HBSS were injected into the flow cell and allowed to interact with the immobilized DBP (FIG. 8B). Data is expressed as response units of the molecular interaction on the sensor chip.
# FIGS. 9A to 9C show the effect of pretreating U937-C5aR cells with purified DBP or DBP peptides on the binding to DBP immobilized on a Biacore sensor chip. FIG. 9A: 10^6 cells/ml in HBSS were not treated (control), pretreated with 50 nM DBP, 0.5 μM DBP peptide 1 (p1) or DBP peptide 2 (p2). FIG. 9B: DBP peptide 1 immobilized to the Biacore sensor chip. FIG. 9C: DBP peptide 2 immobilized to the Biacore sensor chip. Data is expressed as response units of the molecular interaction on the sensor chip.
# U937-C5aR cells (10^6 cells/ml in HBSS) were pretreated with a 25 μg/ml control IgG, 50 nM purified DBP or 25 μg/ml affinity-purified anti-CD44 and then allowed to interact with DBP immobilized on a Biacore sensor chip. Data is expressed as response units of the molecular interaction on the sensor chip.
# According to the present invention, the interaction of an immobilized ligand, e.g., immobilized DBP, binding to cells can be measure by any established technology available in the art, e.g., by surface plasmon resonance (SPR) or Biacore technology. For example, in the present invention, the binding of U937-C5aR cells to immobilized DBP were examined by Biacore technology, the result of which is used to further determine if the DBP peptides generated in the present invention can alter the interaction U937-C5aR cells and DBP. […] To investigate further the effect of DBP peptides on cell binding, peptide 1 (FIG. 9B) and peptide 2 (FIG. 9C) were immobilized to Biacore sensor chips. […] Finally, the present invention also identifies that CD44 on the cell surface binds DBP and can, in part, mediate the C5a chemotactic cofactor effect of DBP (McVoy and Kew, J. Immunol. 175:4754, 2005). Therefore, using Biacore technology the present invention addresses the effect of blocking CD44 on U937-C5aR binding to immobilized DBP (FIG. 10). In the present invention, U937-C5aR cells were pretreated with either an irrelevant goat IgG (negative control), purified soluble DBP (positive control) or affinity-purified goat anti-CD44. […] These Biacore experiments have provided a powerful quantitative tool to investigate the cell binding region on DBP and examine the effects on DBP peptides on this interaction.
molecule,measurement,setting,value
B1,inhibition of U937-C5aR cell binding to the DBP chip,"FIG. 9A, 10^6 cells/ml pretreated with 50 nM DBP or 0.5 μM DBP peptide",almost completely blocked
same,inhibition of U937-C5aR binding to immobilized DBP,"FIG. 10, cells pretreated with 50 nM purified DBP or 25 μg/ml anti-CD44",completely blocks binding
